The results in this text go back to patent US10378034B2, “Use of a N-acetylneuraminate lyase derived from the bacterium Aliivibrio salmonicida in the production of neuraminic acid and derivatives thereof” (Universitetet i Tromsø-Norges Arktiske Universitet, priority 2014, dated 2019).

This data set can be described thus: Differential scanning calorimetry (DSC). The class given is physicochemical. To be noted: 500 mM NaCl, 50 mM HEPES pH 7.5. As for the experimental part: The melting temperature of AsNAL was studied by differential scanning calorimetry (DSC). The pure protein was dialyzed overnight at 4° C. against a buffer containing 50 mM HEPES, pH 7.5 and 500 mM NaCl in a Pierce Slide-A-Lyzer dialysis cassette (3.5 kDa cut-off). Dialyzed protein was concentrated to 1.9 mg/ml using a 10 kDa cutoff Amicon Ultra spin-column (Millipore), filtered through a 0.2 μm filter (Millipore) and degassed for 15 min. DSC experiments were carried out with a Nano-Differential Scanning Calorimeter III, (calorimetry Sciences Corporation) at a scan rate of 1° C./min in the range from 1 to 80° C. and with a constant pressure of 3 atm. The dialysis buffer was used as reference in the DSC runs. The melting temperature of the protein was calculated by subtracting the buffer-buffer baseline from the protein scan. Refolding experiments were carried out by a reverse cooling scan, allowing the unfolded protein to be kept at 4° C. overnight before a new forward scan was done. The NanoAnalyze™ software was used to calculate the melting temperature. The experimental transition curves were fitted on a two-state transition model.
Background: Differential scanning calorimetry records heat flow against a reference as temperature is scanned.

B1: AsNAL: N-acetylneuraminate lyase isolated from the psychrophilic bacterium Aliivibrio salmonicida LFI1238, recombinantly expressed in E. coli (protein, listed as Aliivibrio salmonicida)
chain: MKKLTGLIAAPHTPFDSSSNVNFEEIDKIAKHLINDGVKGIYVCGTTGEGIHCSVEERKAIAERWVSACNHKLDIIVHTGALSIVDTLELTRHADTLDILATSAIGPCFFKPGSVSDLVEYCATIAAAAPSKGFYYYHSGMSGVNLNMEEFLIQADKRIPNLSGLKFNSGDLYEYQRCLRACDGKFDVPFGVDEFLPGALAVGAKSAVGSTYNYAAPHFNSIIEAFNKGDHDAVFNKMTNVIELIRVLVEFGGVAAGKIAMELHDINAGDPRLPLMPLSAEQKLTVVEKMRAANFLK
As to B1, the “melting temperature (DSC)” value amounted to 77.5 °C, the “ΔH (DSC)” value turned out to be 179.164 kcal/mol and the “ΔS (DSC)” value is 2.137 kJ/(mol·K).
